Experiment: soluble on expression in E. coli; label from the status in PepcDB or PDB records

Row | Sequence | soluble on expression in E. coli
1 | MGSDKIHHHHHHMLPLDSLSDCASKSYLLTHLPDLNHRHLSSSVSTNSELIAAVQDGTLNATAMHLLTAETQSAGRGQHGRSWQSPRGNVYLSLYHPVHIPISGLLSLIIGVELAKMPIIQTLNDQLCAQGLTPIGVKWANDLGFYSYQYHHQSELHKILLANEMTPFHKLAGILIEPVTQAGKLVGIVMGVGLNVQATPKLTAQTCEGMSYQAISLQDIKQLLEPDKSASALLSLRELYQQMSKALMAAMTRFEHLGLEKPTGQTYNLDSFLKQFDSMDALAGLRLRITQEHNGQTETLTGYACGIDTHGCLQLRQDNGNISALFTGRIDVIDNA | not soluble
2 | MVKAQLQKLIEQVATEHDLPERVVERALKNAIITAIRKEKKIRDELEVEFTDEGIKVYVVRRKGNKKFKFPLDISPEDLNRLAAYAAKEEFYKELERAEQERGYLEFKELEGEIVYGIVRKVLENGDVIVDLGRIDAILPKREQLPTDNFKTGDKVKALLLEVRKRRGEPVLILSRTHPNFLRKLLEQEVPEIKEGLVEIKAVARIPGERAKVAVEAKEMKMDPVGIVVGLKGMRIQKVSEELGGEKIDVIRWSDDIAELIKRALAPAHPEKIKLFPYEKRAEVAVPEEELSLAIGKKGINVKLASKLTGWHIDVLSTKDFEKLEELRKKEDEGQTS | soluble
3 | MLTSGETVNVVLDFTKCTSTDDQKKPGMMRGDLRISAFLIRPDNSISFSDEHFTITTMDKEPIYQFLRYSLKPDETASFTMTTLSMPEKAHKGEVIAYNCKFATALEHHHHHH | not soluble
4 | MATTPETMENHAFDADMSFESALENYLSSDFGDLEEGSIVKGEIVRLGDDYVLVDVNFKSEGQIAANEFRDANGDLIIGVGDRVDVFVVRKNEMEGTITLSYEKAKRMQLFDQLEEVQEKNGVIKGRIVRRIKGGYTVDLGGVEAFLPGSHVDLRPVPDMDALVNQEYEFRVLKINRRRSNVIVSRRVLLEEERDSKRQDLLRTLEEGQVVKGKAKNITEYGVFVDLGGLDGLLHITDMSWKRIRHPKELVSLGQELELKVLSFDRDSQKVSLGMKQLVADPWQDITAKFPEGLRGQGKVTNLVDYGAFVELEPGVEGLVHISEMSWTRKLRHPSQMVRVGDEVEVVILGVDPDKKRISLGMKQVKPNPWEVVAEKYPEGTILEGVIKNITEFGMFIGIEDGIDGLIHVSDISWTKKIRHPNEMYKVGDVVQAKVLTVDQENEKFTLGVKQLAEDPWSRVPATYPVGTLVTGSVTNITDFGLFVEVEEGIEGLVHVSEISQKKIKSPSEIYKEGQEIQAKVIHVSAEERRLGLSIKQLKDEEERRKPKEFRSGSPEVGGQTLGDILKLKLEEDAADNLEHHHHHH | not soluble
5 | MTPRSLVRIVGVVVATTLALVSAPAGGRAAHADPCSDIAVVFARGTHQASGLGDVGEAFVDSLTSQVGGRSIGVYAVNYPASDDYRASASNGSDDASAHIQRTVASCPNTRIVLGGYSQGATVIDLSTSAMPPAVADHVAAVALFGEPSSGFSSMLWGGGSLPTIGPLYSSKTINLCAPDDPICTGGGNIMAHVSYVQSGMTSQAATFAANRLDHAG | not soluble
6 | MAPPKDPPVLRNLQATADLLDALQNDPSLLNDEEFIKRLSILRQKHEETTNFLAKKLGAPPLPTMMTSSEITQHRSSYKVTKSSSCHFQDEASPSDYQMPRHLDLKPRSSEVRVPVRAAPEPPREQSWSQTEYATLAHNQSHEALYEDPRHQVHATSSHQNPRHQSSRHHNIESTAPSQVSVTSSVQSVAALSGQNPRQQVHATPSHQIPRHQSSRTHQNSRQQVPSATSSTLQNPRHRTSSASRHHSTRNATSATVRQILANASTRHLSSAPHIATSVAMPSGLLLSSSNTKHVASSKSENPQFATSSHVVEESFLEDGMSTTREVPTIRDEVVAGDLKLSKNRSKSMHQLSKYTPQVTVPKPFQLSLRKSTGNTYAKKFMSGLITEKQKLEEDAKKALENTKFRAKPVPKSTYQPTNTFATEQKYVEAMRKKVAAKARRKFEVQNEMVRSKSEGNLASIKPLGYVPPSTYISPIPVKPNARSRSATMRATILIQEATTPKGIKSHRAQSNLTHHLRHGRCTMDASAVSLHRRTSPPDFEKIHAKITDNFRNTNSKPSTVPIPFKFASRSKSATSRHGNCQEQAPKPFKKSTENLPKTSKNRVPSTHATQLREELNRAKIELKKSEKSGKNGNFWAEDNKQRISSFLGARSKTEEDIAMRTKQKLQQQQETTQEYMRQLAEMKQRVLNGPLIMEKQTALAQEHRLKRKFEERMKSAKGRGIERVQSQEKQQSIGRRSSEVSGSGTFVVDKGYEESFESEDKSEKSGSSTPSESGSGSESENESRSSRSSKPKSSKSTSSKSSSSRSTSSSSEA | not soluble
7 | MSENSIRLTQYSHGAGCGCKISPKVLETILHSEQAKFVDPNLLVGNETRDDAAVYDLGNGTSVISTTDFFMPIVDNPFDFGRIAATNAISDIFAMGGKPIMAIAILGWPINKLSPEIAREVTEGGRYACRQAGIALAGGHSIDAPEPIFGLAVTGIVPTERVKKNSTAQAGCKLFLTKPLGIGVLTTAEKKSLLKPEHQGLATEVMCRMNIAGASFANIEGVKAMTDVTGFGLLGHLSEMCQGAGVQARVDYEAIPKLPGVEEYIKLGAVPGGTERNFASYGHLMGEMPREVRDLLCDPQTSGGLLLAVMPEAENEVKATAAEFGIELTAIGELVPARGGRAMVEIR | soluble
8 | MGSDKIHHHHHHMTTHSHTLTIAGQPLHYTDQGQGNTLVFIHGLLGNKVQWQSQIDALKANYRCIAIDLWGHGDSQTMPENTANLKDIASQLLSMLTALNINSCSLISLGTGCAIASEMALLSPKNINALVMINGFIGFEPEVNCVKYQGMLDEVQLNNGISTALAKQIATLFFNTQAQKTAVKTDTVTNAVTNEIESASVDSQISDKAMAALAQQLTEINAVQLSALVKFVPMAIYKRDTLEDVERFCLPSLILASNNNKLRTPLEAYLMQDTLDGSQLTQIPNAGHWVHLEQAEQLKQLISQFLQQH | not soluble
9 | MSGRKIAAATVQNRTQTPFWNWLKQKLLASDRLPITPPPGIAGPDGKAVYQNPLRFPNTQSARPCSAELPALPGGVHHKLADNYYLTRDGRRNVDAPKVLYSSGEFVGGEKAQPAQVNQGVATNFGLTAPTPGFGAEWSRSKQNELASQQKNTEFEYLQRFDKFTKSA | not soluble
10 | MCILFIAIEQHPKYPLIICANRDEFHQRPTQAMHVWQESNILAGKDLQAGGTWLGLSSTGKFAALTNFRKLPLSEAPKKSRGDLVLQALADTKINMTAELAQQASQYHGFNLIYGSLKQLYCYDSVNNQSHQLSDGVHSICNGALDDIWPKMARGEKLLSETIRSQKNLSIEALFDLMTNDKQALPHLLPETGLDEEWEQLLSAIFIKSPTYGTRTTTIITQDVEGNVETYDRSYAPSGECITKQQFNLATVFDLEHHHHHH | not soluble
11 | MSLKTMKFILACVLLLSPLLCQAQKNLFNKYNDMKGVSSVYISKAMMELNPNLFMKDLYIGKVAEHLNSVQVLSTHDNKVREEMAKDIRSLVQSSKYELLMKQKSTVSGSEVYVNRKGSKVKELIMVMNGASSLKFVYMEGDMTTDDIKKLMLYQSTSQNEGHHHHHH | not soluble
12 | GSHMQSYQISSRLMAQEGQRTSVQTSSLIQSLFDFRLAALRIHQDSTAKNASLINALVSRDSSRLDEFFSSVDELELSNAPDLRFISSHDNILWDDGNASFYGIAQQELNKLIRRVAISGNWHLVQTPSEGKSVHILMRRSSLIEAGTGQVVGYLYVGIVLNDNFALLENIRSGSNSENLVLAVDTTPLVSTLKGNEPYSLDYVVHSAKDAMRDSFIVGQTFLEVESVPTYLCVYSIQTNQNVLTLRDNESVPTYLCVYSIQTNQNVRHQ | soluble
13 | MGSDKIHHHHHHMTEGSQQKRVVVVGAGWAGLGATYHLAKQGYDVTLLEAGPYPGGLVAGWQTTGGKSVEAGIHGFWYPYRNIFALINELNIHPFTTWTRSAQYSPAGLEVESPIFQDLPRLPTPLGTFIYTQFQRLPLIDRLSALPLLYAVVDFDNSDAAWRRYDSVTARELFKDFGVSARLYKEAFEPMLLVGLFAPGEQCSAAATLGMLYFFILAHQADFDVVWCRGTVGEKIFRPWVERIEKAGAKVLPKHRVTDLIIDSNNQATGVVCGNEVFDADAVIFAVGITGMKKIVSSSPSLQSRAEFRNLHNLGAIDVLATRLWFDRKIDIPRPSNACFGFDNTTGWTFFDLNALHDEYKNELGTVIEADFYHANQFLNWSDAEIVATVQNYLTTCVPGFAQAKVIDSSVIRLPQAVTHFAPGSYPYMLPAKTSFDNVFMSGDWIVNRHGSWSQEKAYVTGLEAANLVVSHLGEGTPVEILPVEADETHIQVARSLNQTVRKLGKFILPNFWLP | not soluble
14 | AVPETRPNHTIYINNLNEKIKKDELKKSLYAIFSQFGQILDILVSRSLKMRGQAFVIFKEVSSATNALRSMQGFPFYDKPMRIQYAKTDSDIIAKMKGTFVERDRKREKRKPKSQE | soluble
15 | FKIETTPESRYLAQIGDSVSLTCSTTGCESPFFSWRTQIDSPLNGKVTNEGTTSTLTMNPVSFGNEHSYLCTATCESRKLEKGIQVEIYSFPKDPEIHLSGPLEAGKPITVKCSVADVYPFDRLEIDLLKGDHLMKSQEFLEDADRKSLETKSLEVTFTPVIEDIGKVLVCRAKLHIDEMDSVPTVRQAVKELQVYISPKNT | soluble
16 | KRYIPSVNDFVIGVIIGTFSDSYKVSLQNFSSSVSLSYMAFPNASKKNRPTLQVGDLVYARVCTAEKELEAEIECFDSTTGRDAGFGILEDGMIIDVNLNFARQLLFNNDFPLLKVLAAHTKFEVAIGLNGKIWVKCEELSNTLACYRTIMECCQKNDTAAFKDIAKRQFKEILT | soluble
17 | MTEWTGEERYQRIEDVDTEYFKTLKQQVDQSKFRQQFHIQPETGLLNDPNGLIFYKGKYYVSHQWFPLGAVHGLKYWYNYTSDDLINFKAEGPILNPDTKYDSHGVYSGSAFEYNGHLYYMYTGNHRDNHWQRHASQMIARLKEDGSVEKFPKPVISQQPEGYTSHFRDPKVFKYDEKYYAIIGAQNNDQQGRLLLYNTEDIINWHYLGEINTELDDFGYMWECPDYFNVDNQDVILICPQGIEPKGDQFKNIYQSGYILGKFDIEKLTYEHENFVELDNGFDFYAPQTFLDEKGRRVLIGWMGLPEIEYPTDNEGWAHCLTTPRVLNVENGQLKQRPYPALEKLRHNKETALGYANKFTRKLHPYEGKQYELIIDILDNDATEVYFELRTSKTSSTLIAYNKRENKITLDRSDSGLLPTNVEGTTRSTILDTPLKQLQIFVDTSSIEIFCNDGERVLTSRIFPTEDALGIKTSTESGQVYLQFTKYDLKDEHK | not soluble
18 | MDGNDINIQKNEFSRDQSALLMMDQHSDHKNHESAIGEPGMSYTASQPALSSTEHQTPLVSEASVAAPQNHLNGNSHESVSEMDRNSVDFAIESVLMKARAYNKMGAPKDPRRKQHNPKSEPKIEPHVTDSSDNQAAMSNKMEAEAPKMESNQNYVSNGSEPPFRFVSISNFDEMKTKKKEVQEELKLEVDSDSEEDDVPEQKTPKESDRCGGCGKFTHEDDLIALEEEKKKEKEKPLMSKKKSHHHKKNDFQWIGCDSCQTWYHFLCSGLEQFEYYLYEKFFCPKCVPHTGHSIRYKVVAPHRYRWYSPNEKHLGIEVGSKTWIEDFITRENTVPSPTDDEVCIVEDGYEFRREFEKLGGADNWGKVFMVKDMDGLNMTMPKPGFDLEDVVKIMGSDYEVDTIDVYNQSTYSMKLDTFRKLFRDTKNRPLLYNFLSLEFSDNNEMKEIAKPPRFVQEISMVNRLWPDVSGAEYIKLLQREEYLPEDQRPKVEQFCLAGMAGSYTDFHVDFGGSSVYYHILKGEKIFYIAAPTEQNFAAYQAHETSPDTTTWFGDIANGAVKRVVIKEGQTLLIPAGWIHAVLTPVDSLVFGGNFLHLGNLEMQMRVYHLENAIRKEIRSEEKFYFPNFELLHWMYMRNVLLEKITEANQEGSDMREQEKNIWTASQIMKAEMERWMDRELRLGPEKNAILPTDDKNKIMISVRKQIEIQTKIQNAKNKPMGLKQKRKSRESAERDDEDYCPSSSTAYKKKYTKKAKKDNDDAPKVKKAKKEEVPEEKVPVPEAAGPSEVTAPLTIKIGMGPTEDQKGVVQIFNNQCTSSGRKVKLNQNVADYCGSHLEARVEEIPEKATKSFRELDNELERCEAVHSGEKIKKVKEPKPPKQPKEKKEKPPPKKKEMSSRDRLMKKLKM | not soluble
